Reference: article PMC9712113, “Medin co-aggregates with vascular amyloid-β in Alzheimer’s disease” (Nature, 2022)

Target: the molecule itself
Test: Thioflavin T fluorescence seeding assay; 10 µM monomeric Met-Aβ or CT-medin with 0.5 µM sonicated pre-formed seeds of either peptide; 50 mM Tris pH 8, 25 µM ThT, 30 °C

B1: C-terminal fragment of medin (peptide)
peptide: EVTGIITQGARNFGSVQFVASYK
notes: C-terminal fragment of medin / MFG-E8, identified in tissue extracts by mass spectrometry; also called CT-medin; C-terminal medin fragment; source: synthetic peptide (Intavis Multipep RSi solid phase synthesis, purity >90%)
B1: binds.
